Legend:
[1] = test system: HeLa Kyoto; assay: thermal stability score vs G1/S (z-score of summed log2 fold changes over temperatures); higher = more thermally stable than in G1/S
[2] = test system: HeLa Kyoto; assay: solubility change mitosis vs G1/S (difference of NP-40 vs SDS log2 ratios) (log2 ratio difference); higher = more soluble in mitosis
[3] = test system: HeLa Kyoto; assay: solubility in G1/S (NP-40 vs SDS abundance) (log2 ratio); higher = more soluble; conditions: cell cycle stage: G1/S
[4] = test system: HeLa Kyoto; assay: melting temperature (median over replicates), in situ; higher = more thermally stable
[5] = cell cycle stage: early G1 (4.5 h after nocodazole release)
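Wherever melting temperature (median over replicates), in situ is given: HeLa Kyoto cells synchronized by double thymidine or nocodazole block, proteins quantified by TMT10plex mass spectrometry, three independent biological replicates.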
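Wherever solubility change mitosis vs G1/S (difference of NP-40 vs SDS log2 ratios) is given: synchronized HeLa Kyoto cells (double thymidine block for G1/S, nocodazole release for mitosis), protein amounts in NP-40 versus SDS lysates quantified by mass spectrometry, three biological replicates.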
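Wherever solubility in G1/S (NP-40 vs SDS abundance) is given: HeLa Kyoto cells arrested at G1/S by double thymidine block, proteins quantified by TMT10plex mass spectrometry in mild NP-40 versus SDS extracts, three biological replicates.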
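Wherever thermal stability score vs G1/S (z-score of summed log2 fold changes over temperatures) is given: synchronized HeLa Kyoto cells, proteins quantified by TMT10plex mass spectrometry, three biological replicates, mitosis taken 0.5 h after nocodazole release, G1/S directly after double thymidine block.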

Substance	thermal stability score [1, 5]	thermal stability score ([1]; cell cycle stage: mitosis)	solubility change mitosis (log2) [2]	solubility in G1/S (log2) [3]	melting temperature ([4]; cell cycle stage: G1/S)	melting temperature ([4]; cell cycle stage: mitosis)
MDVENEQILNVNPADPDNLSDSLFSGDEENAGTEEIKNEINGNWISASSINEARINAKAKRRLRKNSSRDSGRGDSVSDSGSDALRSGLTVPTSPKGRLLDRRSRSGKGRGLPKKGGAGGKGVWGTPGQVYDVEEVDVKDPNYDDDQENCVYETVVLPLDERAFEKTLTPIIQEYFEHGDTNEVAEMLRDLNLGEMKSGVPVLAVSLALEGKASHREMTSKLLSDLCGTVMSTTDVEKSFDKLLKDLPELALDTPRAPQLVGQFIARAVGDGILCNTYIDSYKGTVDCVQARAALDKATVLLSMSKGGKRKDSVWGSGGGQQSVNHLVKEIDMLLKEYLLSGDISEAEHCLKELEVPHFHHELVYEAIIMVLESTGESTFKMILDLLKSLWKSSTITVDQMKRGYERIYNEIPDINLDVPHSYSVLERFVEECFQAGIISKQLRDLCPSRGRKRFVSEGDGGRLKPESY [PDCD4]	1.91	4.21	-0.495	0.349	48.8 °C	
MAGSSEEAPDYGRGVVIMDDWPGYDLNLFTYPQHYYGDLEYVLIPHGIIVDRIERLAKDIMKDIGYSDIMVLCVLKGGYKFCADLVEHLKNISRNSDRFVSMKVDFIRLKSYRNDQSMGEMQIIGGDDLSTLAGKNVLIVEDVVGTGRTMKALLSNIEKYKPNMIKVASLLVKRTSRSDGFRPDYAGFEIPNLFVVGYALDYNEYFRDLNHICVINEHGKEKYRV [PRTFDC1]	-0.858	-0.334	-0.113	-0.298	56.5 °C	55.5 °C
MHKAGLLGLCARAWNSVRMASSGMTRRDPLANKVALVTASTDGIGFAIARRLAQDGAHVVVSSRKQQNVDQAVATLQGEGLSVTGTVCHVGKAEDRERLVATAVKLHGGIDILVSNAAVNPFFGSIMDVTEEVWDKTLDINVKAPALMTKAVVPEMEKRGGGSVVIVSSIAAFSPSPGFSPYNVSKTALLGLTKTLAIELAPRNIRVNCLAPGLIKTSFSRMLWMDKEKEESMKETLRIRRLGEPEDCAGIVSFLCSEDASYITGETVVVGGGTPSRL [DHRS4]	-0.643	-0.663	0.0427	-0.159	53.4 °C	53.5 °C
MESMFSSPAEAALQRETGVPGLLTPLPDLDGVYELERVAGFVRDLGCERVALQFPDQLLGDAVAVAARLEETTGSKMFILGDTAYGSCCVDVLGAEQAGAQALIHFGPACLSPPARPLPVAFVLRQRSVALELCVKAFEAQNPDPKAPVVLLSEPACAHALEALATLLRPRYLDLLVSSPAFPQPVGSLSPEPMPLERFGRRFPLAPGRRLEEYGAFYVGGSKASPDPDLDPDLSRLLLGWAPGQPFSSCCPDTGKTQDEGARAGRLRARRRYLVERARDARVVGLLAGTLGVAQHREALAHLRNLTQAAGKRSYVLALGRPTPAKLANFPEVDVFVLLACPLGALAPQLSGSFFQPILAPCELEAACNPAWPPPGLAPHLTHYADLLPGSPFHVALPPPESELWETPDVSLITGDLRPPPAWKSSNDHGSLALTPRPQLELAESSPAASFLSSRSWQGLEPRLGQTPVTEAVSGRRGIAIAYEDEGSG [DPH2]	-0.452	-1.28	-0.0726	0.268	53.9 °C	53.4 °C
NBAS	0.362	1.51	-0.169	-0.197	49.8 °C	50.1 °C
MARGLGAPHWVAVGLLTWATLGLLVAGLGGHDDLHDDLQEDFHGHSHRHSHEDFHHGHSHAHGHGHTHESIWHGHTHDHDHGHSHEDLHHGHSHGYSHESLYHRGHGHDHEHSHGGYGESGAPGIKQDLDAVTLWAYALGATVLISAAPFFVLFLIPVESNSPRHRSLLQILLSFASGGLLGDAFLHLIPHALEPHSHHTLEQPGHGHSHSGQGPILSVGLWVLSGIVAFLVVEKFVRHVKGGHGHSHGHGHAHSHTRGSHGHGRQERSTKEKQSSEEEEKETRGVQKRRGGSTVPKDGPVRPQNAEEEKRGLDLRVSGYLNLAADLAHNFTDGLAIGASFRGGRGLGILTTMTVLLHEVPHEVGDFAILVQSGCSKKQAMRLQLLTAVGALAGTACALLTEGGAVGSEIAGGAGPGWVLPFTAGGFIYVATVSVLPELLREASPLQSLLEVLGLLGGVIMMVLIAHLE [SLC39A7]	-0.93	-2.25	-0.00492	-0.392	59.2 °C	57.1 °C
MSQSKGKKRNPGLKIPKEAFEQPQTSSTPPRDLDSKACISIGNQNFEVKADDLEPIMELGRGAYGVVEKMRHVPSGQIMAVKRIRATVNSQEQKRLLMDLDISMRTVDCPFTVTFYGALFREGDVWICMELMDTSLDKFYKQVIDKGQTIPEDILGKIAVSIVKALEHLHSKLSVIHRDVKPSNVLINALGQVKMCDFGISGYLVDSVAKTIDAGCKPYMAPERINPELNQKGYSVKSDIWSLGITMIELAILRFPYDSWGTPFQQLKQVVEEPSPQLPADKFSAEFVDFTSQCLKKNSKERPTYPELMQHPFFTLHESKGTDVASFVKLILGD [MAP2K6]	1.49	0.537	-0.158	0.225	51.4 °C	52.5 °C
MPLVKRNIDPRHLCHTALPRGIKNELECVTNISLANIIRQLSSLSKYAEDIFGELFNEAHSFSFRVNSLQERVDRLSVSVTQLDPKEEELSLQDITMRKAFRSSTIQDQQLFDRKTLPIPLQETYDVCEQPPPLNILTPYRDDGKEGLKFYTNPSYFFDLWKEKMLQDTEDKRKEKRKQKQKNLDRPHEPEKVPRAPHDRRREWQKLAQGPELAEDDANLLHKHIEVANGPASHFETRPQTYVDHMDGSYSLSALPFSQMSELLTRAEERVLVRPHEPPPPPPMHGAGDAKPIPTCISSATGLIENRPQSPATGRTPVFVSPTPPPPPPPLPSALSTSSLRASMTSTPPPPVPPPPPPPATALQAPAVPPPPAPLQIAPGVLHPAPPPIAPPLVQPSPPVARAAPVCETVPVHPLPQGEVQGLPPPPPPPPLPPPGIRPSSPVTVTALAHPPSGLHPTPSTAPGPHVPLMPPSPPSQVIPASEPKRHPSTLPVISDARSVLLEAIRKGIQLRKVEEQREQEAKHERIENDVATILSRRIAVEYSDSEDDSEFDEVDWLE [WASF1]	-0.0852	0.459	0.025	0.124	51.5 °C	52 °C
MTNPSDRVLPANSMAESREGDFGCTVMELRKLMELRSRDALTQINVHYGGVQNLCSRLKTSPVEGLSGNPADLEKRRQVFGHNVIPPKKPKTFLELVWEALQDVTLIILEIAAIISLVLSFYRPAGEENELCGQVATTPEDENEAQAGWIEGAAILFSVIIVVLVTAFNDWSKEKQFRGLQCRIEQEQKFSIIRNGQLIQLPVAEIVVGDIAQVKYGDLLPADGILIQGNDLKIDESSLTGESDHVKKSLDKDPMLLSGTHVMEGSGRMVVTAVGVNSQTGIILTLLGVNEDDEGEKKKKGKKQGVPENRNKAKTQDGVALEIQPLNSQEGIDNEEKDKKAVKVPKKEKSVLQGKLTRLAVQIGKAGLLMSALTVFILILYFVIDNFVINRRPWLPECTPIYIQYFVKFFIIGITVLVVAVPEGLPLAVTISLAYSVKKMMKDNNLVRHLDACETMGNATAICSDKTGTLTMNRMTVVQAYIGGIHYRQIPSPDVFLPKVLDLIVNGISINSAYTSKILPPEKEGGLPRQVGNKTECALLGFVTDLKQDYQAVRNEVPEEKLYKVYTFNSVRKSMSTVIRNPNGGFRMYSKGASEIILRKCNRILDRKGEAVPFKNKDRDDMVRTVIEPMACDGLRTICIAYRDFDDTEPSWDNENEILTELTCIAVVGIEDPVRPEVPDAIAKCKQAGITVRMVTGDNINTARAIATKCGILTPGDDFLCLEGKEFNRLIRNEKGEVEQEKLDKIWPKLRVLARSSPTDKHTLVKGIIDSTVGEHRQVVAVTGDGTNDGPALKKADVGFAMGIAGTDVAKEASDIILTDDNFTSIVKAVMWGRNVYDSISKFLQFQLTVNVVAVIVAFTGACITQDSPLKAVQMLWVNLIMDTFASLALATEPPTESLLKRRPYGRNKPLISRTMMKNILGHAFYQLIVIFILVFAGEKFFDIDSGRKAPLHSPPSQHYTIVFNTFVLMQLFNEINSRKIHGEKNVFSGIYRNIIFCSVVLGTFICQIFIVEFGGKPFSCTSLSLSQWLWCLFIGIGELLWGQFISAIPTRSLKFLKEAGHGTTKEEITKDAEGLDEIDHAEMELRRGQILWFRGLNRIQTQIDVINTFQTGASFKGVLRRQNMGQHLDVKLVPSSSYIKVVKAFHSSLHESIQKPYNQKSIHSFMTHPEFAIEEELPRTPLLDEEEEENPDKASKFGTRVLLLDGEVTPYANTNNNAVDCNQVQLPQSDSSLQSLETSV [ATP2B4]	1.12	0.912	-0.0607	-0.254	54.7 °C	54.9 °C
